The text below walks through data of the nanobody polyreactivity screen of Harvey et al. (2022).

The nature of the data set: yeast display, Sf9 membrane polyspecificity reagent, FACS + sequencing; frameworks hold sequencing errors. The method in brief:
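Nanobodies came from a synthetic yeast display library in Saccharomyces cerevisiae BJ5465, induced with galactose for 36–48 hours and stained for 1 hour at 4 °C with 10% biotinylated, detergent-solubilized Sf9 membrane reagent. Cells were enriched on streptavidin microbeads and then FACS-sorted, with low and high (top ~1%) gates set on anti-HA fluorescence for expression and streptavidin fluorescence for reagent binding. Each polyreactivity label reflects the gate a clone came from. Genes were amplified by colony PCR, sequenced by MiSeq 2 × 250 and filtered by CDR length.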
Regarding “QVQLEESGGGLVQAGGSLRLSCAASGSTFSSNVMGWYRQAPGKERELVAAITGSGSRTYYADSVKGRFTISRDNAKNTVYLQMNSLKPEDTAVYYCNTKGRSRETYGYDYWGQGTQVTVSS”, the “polyreactivity (PSR sort gate)” value is listed as “high polyreactivity”.

“QVQLVESGGGLVQAGGSLRLSCAASGNIFIYNAMGWYREAPGKERELVAVISNSGSTYYADSVKGRFTISRDNAKNTVYLQMHSLKPEDSAVYYCNKDGGGDSYWYDYWGQGTHVTVSS”: the “polyreactivity (PSR sort gate)” value is “low polyreactivity”.

“QVQLVESGGGLVQAGGSLRLSCAASGFIFRYYAMGWYRQAPGKERELVATINSSGGSTYYADSVKGRFTISRDNAKNTVYLQMNSLKPEDTAVYYCYAGYVSYRGQSRYEYWGQGTQVTVSS”: the “polyreactivity (PSR sort gate)” value is on record as “high polyreactivity”.

Take “QVQLVESGGGLVQAGGSLRLSCAASGSIFGDNVMGWYRPAPGKERELVAAISRSGGSTYYADSVKGRFTISRDNAKNTVYVEMNSLIPEDSSVYYCAARYWSWRSFKVDYWGQGTQVTVSS”: the “polyreactivity (PSR sort gate)” value is reported as “high polyreactivity”.

As to “QVQLVESGGGIVQAGGSLRLSCAASGFKFKFYVMGWYRQAPGKERELVAAISRNSVSTYYADSVKGRFTISRDNAKNTVYLQMNSLKPEDTAVYYCAAKGPRQYNHWGQGTQVTVSS”, the “polyreactivity (PSR sort gate)” value is on record as “high polyreactivity”.

As for “QVQLVESGGGLVQAGGSLRLSCAASGSTFYPYAMGRYRQAPGKERELVAAISSGGSTSYADSVKGRFTISRDNAKNTVYLQLNSLKPEDTAVYYCNASSPGAVPVYDYDYWGQGTQVTVSS”, the “polyreactivity (PSR sort gate)” value was “low polyreactivity”.

Consider “QVQLVESGGGLVQAGGSLRISCAASGRTFSGNAMGWYRQAPGKERELVAAISSGGSTNYADSVKGRFTISRDNAKNTVYLQMNSLKPEDTAVYFCARDAYLPRIADGDGRYELVDYWGHGTQVTVSS”, for which the “polyreactivity (PSR sort gate)” value is listed as “low polyreactivity”.

In the case of “QVQLVESGGRLVQAGGSLRLTCAASGYTYSYYAMGWYRQAPGKERELVAAINYSGGRTYYADSVKGRFTISRDNAKNTVYLQMNSLKPEDTAVYYCAAYTRNGDYDYWGQGTQVTVSS”, the “polyreactivity (PSR sort gate)” value is reported as “high polyreactivity”.

Take “QVQLVESGGGLVQAGGSLRLSCAASGSTFAYNDMGWYRQAPGKETELVADIRSGGNTNYADSVKGRFTISRDNAKNTVYLQMNSLKPEDTAVYYCATDGYRFDVYHPDYRYDYWGQGTQVTVSS”: the “polyreactivity (PSR sort gate)” value is “low polyreactivity”.

As for “QVQLVESGGGLVQAGGSLRLSCAASGSIFYSNAMGWYRQAPGKERELVAAITWSGGSTYYADSVKGRFTISRDNAKNTVYLQMNSLKPEDTAVYYCNARRNVRQTFGYEYWGQGTQVTVSS”, the “polyreactivity (PSR sort gate)” value is listed as “high polyreactivity”.

With “QVQLVESGGGLVQAGGSLRLSCAASGRTCYNTMGWYRQAPGKERELVAAISRGGITNYADSVKGRFTISRDSAKKTGYLQMNRLKPEDTAVYYCNAEPKRYYYYYKFDYWGQGTQVTVSS”, the “polyreactivity (PSR sort gate)” value is “high polyreactivity”.

With “QVQLVESGGGLVQAGGSLRLSSAASGSNFPTNAMGWYRQAPGKETELVAAITDGGSTNYADSVKGRFTISRDNAKNTVYLQMNSLKPEDTAVYYCAAVGFKTVLPEYDYWGKGTQVTVSS”, the “polyreactivity (PSR sort gate)” value is on record as “low polyreactivity”.

With “QVQLVESGGGLVQAGGSLRLSCAASGSIFWYNTMGWYRQAPGKERELVASISWDGGTYYADSVKGRFTISRDNAKNTVYLQMNSLKPEDTAVYYCNVAWYWGYDYWGQGTQVTVSS”, the “polyreactivity (PSR sort gate)” value was “low polyreactivity”.

Turning to “QVQLVESGGGLVQAGGSLRLSCAASGNLFYGYAMGWYRQAPGKERELVAAISGSSTYYADSVKGRFTISRDNAKYTVYLQMNSLKPEDTAVYYCAVPQYLYLQAGHGFRYYYWGQGTQVTVSS”, the “polyreactivity (PSR sort gate)” value is “high polyreactivity”.

As to “QVQLVESGGGLVQAGGSLRLSCAASGRILPSNAMGWYRQAPGKEREFVAGISGSGGSTYYADSVKGRFTISRDNAKNTVYLQMNSLKPEDTAVYYCAAGRAYDGTKHDYWGQGTQVTVSS”, the “polyreactivity (PSR sort gate)” value was “high polyreactivity”.

In the case of “QVQLVESGGGLVQAGGSLRLSCAASGFTFRWYAMGWYRQAPGKERELVAAITHSGGSTYYADSVKGRFTISRDNAKNTVYLQMNSLKPEDTAVYYCAAGYIRKYSAFRYNYWGQGTQVTVSS”, the “polyreactivity (PSR sort gate)” value was “high polyreactivity”.

For “QVQLVESGGGLVQAGGSLRLSCAASGRTFYSYAMGWYRQAPGKERELVAAINSGGDTYYADSVKGRFTISRDNAKNTVYLQMNSLKPEDTAVYYCAADYYWEMDTWGQGTQVTVSS”, the “polyreactivity (PSR sort gate)” value is recorded as “low polyreactivity”.

For “QVQLVESGGGLVQAAGSLRLSCAASGSIFNRSTMGWSRQAPGKERELVAGISRGGTTYYADSVKGRFTISRDNAKNTVYLQMNSLKPEDTAVFYCAADYGLLYGQLWGYGYWGQGTQVTVSS”, the “polyreactivity (PSR sort gate)” value is reported as “high polyreactivity”.

For “QVQLVDSGGGLVQAGGSLRLSCAASGRTYDTNAMGWNRQAPRKETELVAVITARGGNTSYADSVKGRFTISRDNAKNTVYLQMNSLKPEDTAVYYCAALYFKVGYYTYEYWGQGTQVTVSS”, the “polyreactivity (PSR sort gate)” value is “low polyreactivity”.

In the case of “QVQLGESGEGLVQAGGSLRLSCAASGFTCGYYTMGLYRQAPGKERELVAAISSSGGRTYYADSVKGRFTISRDNAKNSVYFQMNSLKPEDTAVYYCNVYYISTDLYYWGQGTQVTVSS”, the “polyreactivity (PSR sort gate)” value is on record as “high polyreactivity”.

With “QVQLVESGGGLVQAGGSLRLSCAASGGIFYTYALGWYRQAPGKERELVAGINWSGSSTYYADSVKGRFTISRDNAKNTVYLQMNSLKPEDTAVYYCAARSYSYSTGDYWGQGTQVTVSS”, the “polyreactivity (PSR sort gate)” value is reported as “low polyreactivity”.

Consider “QVQLVESGGGLVQSGGSLRLSCAASGSIFDYYAMGWYRQAPGKERELVASINSSGTGTYYADSVKGRFTFSRDNAKNTVSLQVNSMKPEDTAVYYCATRQAVGYSSGRGYGYWGQGTQETVSS”, for which the “polyreactivity (PSR sort gate)” value was “low polyreactivity”.

With “QVQLVESGGGLVQAGGSLRLSCAASGRIFTYYDMGWYREAPGKERELVAAITWGGGSTYYADSVKGRFTISRDNAKNSVYLQMNSLKPEDSAVYYCATLYYTFVWRHDYWGQGTQVTVSS”, the “polyreactivity (PSR sort gate)” value is on record as “low polyreactivity”.

With “QVQLVESGGGLVQAGGSHRLSCAASGRTFRINAMGWYRQAPGKERELVAAISRSGGSTYYADSVKGRFTISRDNAKNTVYLQMTSVKPEDTAVYYCAARPYYTWRYLPTKSGDYWGQGTLVTVSS”, the “polyreactivity (PSR sort gate)” value is “low polyreactivity”.

As to “QVQLVESGGGLVQAGGSLRLSCAASGSIFVGYAMGWYRQAPGKERELVARISSDGDTYYADSVKGRFTISRDNAKNTVYLQMNSLKPEDTAVYYCNADLYGGGDKSVISGLNGEYEYWGQGTQVTVSS”, the “polyreactivity (PSR sort gate)” value is “low polyreactivity”.

For “QVQLVESGGGLVQAGGSLRISCAASGSTFDVNAMGWYRQAPGKERELVAAISWNSGSTYYADSVKGRFTISRDNAKNTVYLQMNSLKPEDTAVYYCAATYGTGRRSKYGYWGQGTQVTVSS”, the “polyreactivity (PSR sort gate)” value was “high polyreactivity”.

Take “QVQLVESGGGLVQAGGSLRLSCAASGIIFYYAMGWYRQAPGKERELVASIRWSGDSTYYADSVKGRFTISRDNAKNTVYLQMNSLKPEDTAVYYCAAEPDSAVSYVSWRDYWGQGTQVTVSS”: the “polyreactivity (PSR sort gate)” value is listed as “low polyreactivity”.

As for “QVQLVESGGGLVQAGGSLRLSCAASGFTFWLYAMGWYRQAPGKERELVAAISRNSVSTYYADSVKGRFTISRDNAKNTVYLQMNSLKPEDTAVYYCAVDQYATDDYWGQGTQVTVSS”, the “polyreactivity (PSR sort gate)” value is reported as “high polyreactivity”.

Turning to “QVQLVESGGGLVQAGGSLRLSCAASGFIFDGYTMGWYRQAPGKERELVAAITTSGTSTYYADSVKGRFTISRDNAKNTVYLQMNSLKPEDTADYYCAARQYRHRVKYYYWGQGTQVTVSS”, the “polyreactivity (PSR sort gate)” value was “high polyreactivity”.

As for “QVQLVESGVGLVQAGGSLRLSCAASGRIFIDYAMGWYRQAPGKERELVATISESGGSTYYADSVKGRFTISRDNAKNTVYLQMNSLKPEDTAVYYCAVDDRYGTVYFYTKFDYWGQGTQVTVSS”, the “polyreactivity (PSR sort gate)” value is “low polyreactivity”.

With “QVQLVESGGGLVQAGGSLRLSCAASGRIFQYNVMGWYRQAPGKERELVAAISSGGNTYYADSVKGRFTISRDNAKNTVNLPMNSLKPEDTAVYYCAADHYVPWPNYDYDYWGQGTQVTVSS”, the “polyreactivity (PSR sort gate)” value was “low polyreactivity”.

With “QVQLVESGGGLVQAGGSLRLSCAASGRIFGAYTMGWYRQEPGKERELVAAISDGGDTYYADSVKGRFTISRDNAKNTVYFQMNRVKPEDTAVYYCAADAPYYAYYWFPSSFGIYGYWGQGTQVTVSS”, the “polyreactivity (PSR sort gate)” value is given as “low polyreactivity”.

Regarding “QVQLVESGGGLVQAGGSLRLSCAASGSTFTYNAMGWYRQAPGKERELVASISSGTTTYYADSVKGRFTISRDNAKNTVYLQMNSLKPEDTAVYYCAALVSPDRGYYSYWYIYDYWGQGTQVTVSS”, the “polyreactivity (PSR sort gate)” value is listed as “low polyreactivity”.

“QVQLVESGVGLVQAGGSLRLSCAASGYTFRTNVMGWYRQAPGKERELVATINWRGGSTYYADSVKGRFTISRDNAKNTVYLQMNSLKPEDTAVYYCAADPGPYYDWGYDYWGQGTQVTVSS”: the “polyreactivity (PSR sort gate)” value is “low polyreactivity”.

In the case of “QVQLVESGGGLVQAGGSLRLSWAASSIFRTYAMGWYRQAPGKERELVAAITWSGASTNYADSVKGRFTISRDNAKNTVYLQMNSLKPEDTAVYYCNADWRYYPSFKYYYWGQGTQVTVSS”, the “polyreactivity (PSR sort gate)” value is given as “high polyreactivity”.

Turning to “QVQLVESGGGLVQAGGSLRLSCAASGFIFWGNAMGWYRQAPGKERELVAAINYSGGRTYYSDSVKGRFTISRDNAKNTVYLQMNSLKPEDTAVYYCAATGPVNRASYDYWGQGTQVTVSS”, the “polyreactivity (PSR sort gate)” value was “high polyreactivity”.

For the sequence “QVQLVESGGGLVQAGGSLRLSCAASGRIFTLYAMGWYRQAPGKERELVAGISRSGGSTYYADSVKGRFTISRDNAKNTVYFQMNSLKPEDTAVYYCNAVPIYYAWRRNKPFDYWGQGTQVTVSS”, the “polyreactivity (PSR sort gate)” value is on record as “low polyreactivity”.

Take “QVQLVESGGGLVQAGGSLRLSCAASGLNFARNAMGWYRQAPGKERELVASITSGGSTNYADSVKGRFTISRDNAKNTVYLQMNSLKPEDTAVYFCNKAYFFPYPRYRYEYWGQGTQVTVSS”: the “polyreactivity (PSR sort gate)” value is “high polyreactivity”.

As for “QVQLVESGGGLVQAGGSLRLSCAASGSTSDVYAMGWYRQAPGKEREFVAAIRFSGGSTYYADSVKGRFTISRDNAKNTVYLQMNSLKPEDTAVYYCAKRWGIWPRGYYWGQGTQVTVSS”, the “polyreactivity (PSR sort gate)” value is listed as “low polyreactivity”.

Take “QVQLVESGGGLVQAGGSLRLSCAASGSTFWGYAMGWSRQAPGKERELVASITTSDSTYYADSVKGRFTISRDNAKNTVYLQMNSLKPEDSAVYYCAADETWPEYDYWGQGSQVTVSS”: the “polyreactivity (PSR sort gate)” value is “low polyreactivity”.
